Patent US20250257142A1 (INVETX, published 2025)
Numbering of substitutions follows the chain as printed. Numbers in names are those of the source.

T1: extracellular domain of canine IL-31RA fused to murine IgG2A Fc (canine)
T1 construct: also called Canine IL-31RA-murine IgG2A Fc; Canine IL-31RA-mFc
T1 chain: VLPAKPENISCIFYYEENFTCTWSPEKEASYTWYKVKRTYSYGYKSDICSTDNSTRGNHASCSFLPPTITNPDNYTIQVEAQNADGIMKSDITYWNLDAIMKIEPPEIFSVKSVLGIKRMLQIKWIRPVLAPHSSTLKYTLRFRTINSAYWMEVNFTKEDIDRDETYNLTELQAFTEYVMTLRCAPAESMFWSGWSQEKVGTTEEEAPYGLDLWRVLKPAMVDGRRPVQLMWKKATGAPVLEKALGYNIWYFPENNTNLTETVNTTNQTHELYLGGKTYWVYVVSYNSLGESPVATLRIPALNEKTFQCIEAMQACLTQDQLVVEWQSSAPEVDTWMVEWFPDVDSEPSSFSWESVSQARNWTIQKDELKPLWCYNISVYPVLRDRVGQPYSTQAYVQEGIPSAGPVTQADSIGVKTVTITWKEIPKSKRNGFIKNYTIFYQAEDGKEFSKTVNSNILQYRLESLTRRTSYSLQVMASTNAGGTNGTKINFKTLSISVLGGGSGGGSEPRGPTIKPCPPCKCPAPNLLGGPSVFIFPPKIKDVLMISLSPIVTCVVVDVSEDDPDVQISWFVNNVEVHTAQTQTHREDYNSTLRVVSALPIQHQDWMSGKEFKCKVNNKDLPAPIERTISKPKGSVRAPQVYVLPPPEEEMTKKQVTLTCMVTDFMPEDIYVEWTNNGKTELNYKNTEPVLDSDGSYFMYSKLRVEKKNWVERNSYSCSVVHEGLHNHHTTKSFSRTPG

T2: canine IL-31RA (20-308)-AviTag-His Tag, monomeric (canine)
T2 construct: Signal peptide (first 19 residues) left out; also called monomeric IL-31RA
T2 chain: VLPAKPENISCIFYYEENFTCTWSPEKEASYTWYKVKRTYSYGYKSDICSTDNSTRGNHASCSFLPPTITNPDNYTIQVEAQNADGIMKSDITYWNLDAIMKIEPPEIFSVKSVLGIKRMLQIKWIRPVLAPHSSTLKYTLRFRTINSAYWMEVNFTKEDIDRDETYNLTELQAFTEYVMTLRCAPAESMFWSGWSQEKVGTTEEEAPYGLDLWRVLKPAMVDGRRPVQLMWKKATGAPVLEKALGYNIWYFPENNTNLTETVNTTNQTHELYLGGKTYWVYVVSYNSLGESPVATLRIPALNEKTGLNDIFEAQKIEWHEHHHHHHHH

B1: Clone 109 (human antibody 109, human IgG1) (antibody, V domains shown)
VH: EVQLVESGGGVVRPGGSLRLSCAASGFTFDDYGMSWVRQIPGRGLEWVSGINWAGGTIGYADSVKGRFTVSRDDANNSLYLQMNSLRAEDTALYLCARESPLRLGDLGGDYFYYYYYMDVWGKGTTVTVSS
VL: EIVLTQSPGTLSLSPGERATLSCRASQSVSSRYLVWYQQKPGQAPRLLIYGTSSRATGIPDRFSGSGSGTDFTLTISRLEPEDFAVYYCQQYDNSPRTFGQGTKVEIKR
B2: Clone 186 (human antibody 186, human IgG1) (antibody, V domains shown)
VH: EVQLLESGGGLIQPGGSLRLSCGASGFTFSSYAMSWVRQAPGKGLEWVSAISGSGNSTYYADSVKGRFTISRDNSKNTLYLQMNSLRAEDTAVYYCATQVVYYFKMDVWGKGTTVTVSS
VL: EIVMTQSPATLSVSPGERATLSCRASQSVSSNLAWYRQKPGQAPRLLIYGASTRATGIPARFSGSGSGTEFTLTISSLQSEDFAVYYCQQYYNWPPFTFGPGTKLDIKR
B3: 109-49_IA (109-49 containing the M118I and S95A variants) (antibody, V domains shown)
VH: EVQLVESGGDLVKPGGSLRLSCVASGFTFDDYGMSWVRQAPGKGLQWVSGINWAGGTIGYADAVKGRFTISRDNARNTVYLQMNSLRAEDTAVYYCARESPLRLGDLGGDYFYYYYYIDVWGQGTLVTVSS
VL: EVVMIQTPLSLSVSPGEPASISCRASQSVSSRYLVWYLQKPGQSPQLLIYGTSSRATGVSDRFSGSGSGTDFTLRISRVEAEDVGVYYCQQYDNAPRTFGQGTKVEIKR
notes: Canine IgGB/kappa; signal peptides left out; also called M118I / S95A
B4: 186-95 wild-type heavy chain with light chain W94Y variant (antibody, V domains shown)
VH: B2 VH with L5V, G10D, I12V, Q13K, G23V, E46Q, S63A, S75A, K111Q, T114L
VL: EIVMTQSPGSLAGSAGESVSINCKSSQSVSSNLAWYQQKPGERPKLLIYGASTRASGVPARFSSSGSGTDFTLTINNLQAEDVGDYYCQQYYNYPPFTFGQGTKLEIKR
notes: Canine IgGB/kappa; signal peptides left out; also called Wild-type / W94Y
B5: 186-95_QLF (186-95 containing the N56Q, M106L, and W94F variants) (antibody, V domains shown)
VH: EVQLVESGGDLVKPGGSLRLSCVASGFTFSSYAMSWVRQAPGKGLQWVSAISGSGQSTYYADAVKGRFTISRDNAKNTLYLQMNSLRAEDTAVYYCATQVVYYFKLDVWGQGTLVTVSS
VL: B4 VL with Y94F
notes: Canine IgGB/kappa; signal peptides left out; also called N56Q-M106L / W94F
B6: caninized antibody clone 186-95 (antibody, V domains shown)
VH: B5 VH with Q56N, L106M
VL: B4 VL with Y94W
notes: Canine IgGB and canine kappa constant domains

Tests used:
[1] = molecular target: canine IL-31 receptor alpha (IL-31RA) on canine DH-82 cells (canine); assay: cell-based or functional assay
[2] = molecular target: T1, extracellular domain of canine IL-31RA …; assay: SPR Biacore T200, antibody captured on anti-human IgG chip, canine IL-31RA-mFc as analyte, 1:1 model
Procedure: Canine IL-31RA-murine IgG2A Fc was generated by transiently transfecting pcDNA3.4 containing Sequence 3 into GenScript HD (High Density) CHO-S cells and purified with MabSelect SuRe LX chromatography. Further purification of the recombinant protein was completed using gel filtration with TSKgel G3000SWxi chromatography. […] Antibodies were flowed over the anti-human IgG sensor chip at a concentration of 1 μg/ml in 1×HBS-EP+ (Cytiva, BR100826) for 60 seconds at a flow rate of 10 μL/min. Canine IL-31RA-mFc (100 nM, 50 nM, 25 nM, 12.5 nM, 6.25 nM, […]) solutions in 1×HBS-EP+ was flown over the sensor chips for a contact time of 120 s and a dissociation time of 600 s at a flow rate of 30 μL/min. Double reference-subtracted sensorgrams were fitted to a 1:1 binding model using Biacore T200 Evaluation software and the kinetics of binding are shown below in Table 4.

[3] = molecular target: T2, canine IL-31RA (20-308)-AviTag-His Tag, …; assay: SPR Biacore T200, antibody captured on anti-dog H+L chip, monomeric canine IL-31RA (20-308) as analyte
Procedure: (§1) The antibody was captured using a CM5 Series S chip amine coupled with an anti-dog H+L antibody (Jackson Immunoresearch). Canine IL-31RA-mFc (100 nM, 50 nM, 25 nM, 12.5 nM, 6.25 nM, 3.625 nM) solutions in 1×HBS-EP+ was flown over the sensor chip for a contact time of 120 s and a dissociation time of 600 s at a flow rate of […]. Double reference-subtracted sensorgrams were fitted to a 1:1 binding model using Biacore T200 Evaluation software. The canine IL-31RA antigen was both a dimer and aggregated so there were avidity effects with the measured affinities. […] Following the initial results with the single variants, a heavy chain containing the W53F variant and the M118I variant was synthesized and subcloned into pcDNA 3.4 (SEQ ID NO:18). The same methods as described above for expression and purification of the variant along with measuring the relative affinity were used to determine the relative affinity of the W53F/M118I heavy chain variant combined with the S95A light chain and the N94Q light chain variants.
To reduce the avidity effects from using the canine IL-31RA-mouse Fc construct in SPR experiments, a monomeric construct was generated which contains amino acids 20-308 of the canine IL-31IRA extracellular domain (SEQ ID NO:28). This construct has the AviTag sequence ([…] (SEQ ID NO:51)) followed by an 8×His(SEQ ID NO:52) tag to facilitate purification. GenScript HD (High Density) CHO-S cells were transiently transfected with pcDNA 3.4 containing Sequence 28 and purified with HisTrap FF chromatography. Further purification of the recombinant protein was completed using gel filtration with Cytiva HiLoad 26/600 Superdex chromatography to isolate the monomeric IL-31RA species. […] These clones were evaluated in an SPR experiment using the same conditions as described for the caninized clones except the analyte is canine IL-31RA (20-308).

[4] = molecular target: T1, extracellular domain of canine IL-31RA …; assay: SPR Biacore T200, antibody captured on anti-dog H+L chip, canine IL-31RA-mFc as analyte; relative affinity scale: *** 3 pM-100 pM, ** 101 pM-1 nM, * 1.1 nM-20 nM (avidity)
Procedure: as §1, with “The different heavy and light chain combinations were co-transfected into ExpiCHO cells using the ExpiCHO transfection kit (ThermoFisher; Cat. #A29133). Seven days following the transient transfection, the IgG in the conditioned medium was purified using MabSelect SuRe chromatography. The antibodies were buffer-exchanged into PBS, pH 7.4. The relative affinity of the variants was determined by SPR on a Biacore T200. The antibody” for “The antibody”

[5] = molecular target: T1, extracellular domain of canine IL-31RA …; assay: as above
Procedure: as §1, with “Seven days following the transient transfection, the IgG in the conditioned medium was purified using MabSelect SuRe chromatography. The antibodies were buffer-exchanged into PBS, pH 7.4. The relative affinity of the variants was determined by SPR on a Biacore T200. The antibody” for “The antibody”

Binder | IC50 (read off the curve) [1] | Kd [2] | koff [2] | kon [2] | Kd [3] | koff [3] | kon [3] | binding result [5] | other results
B1 | ~4 nM | 0.506 nM | 0.000108 s⁻¹ | 214000 M⁻¹ s⁻¹ | – | – | – | – | –
B2 | ~10 nM | 1.81 nM | 0.000118 s⁻¹ | 65200 M⁻¹ s⁻¹ | – | – | – | – | –
B3 | – | – | – | – | 1.31 nM | 7.09e-05 s⁻¹ | 54400 M⁻¹ s⁻¹ | – | relative affinity (apparent KD by SPR) [4]: 0.003 to 0.1 nM
B4 | – | – | – | – | – | – | – | binds | –
B5 | – | – | – | – | 2.31 nM | 0.000161 s⁻¹ | 69800 M⁻¹ s⁻¹ | binds | –
B6 | – | – | – | – | – | – | – | binds | –
